Assay results published in US20160083450A1, “HUMAN PROTEIN SCAFFOLD WITH CONTROLLED SERUM PHARMACOKINETICS” (THE REGENTS OF THE UNIVERSITY OF CALIFORNIA, priority 2009, published 2016).

Key:
[1] = design: species or system Balb/c mice; details: mouse, in vivo
Method: Their pharmacokinetic profile in blood was evaluated in vivo by injecting each ^131I-labeled DIII protein intravenously in Balb/c mice. Blood was drawn from the tail at eight different time points (0-72 h) and the radioactivity was counted in a gamma well counter.

[2] = type: physicochemical
Method: (§1) When dissolved in aqueous solution, the peptide precipitated. Lack of solubility in water immediately renders this peptide inappropriate for in vivo application. Prior to conjugation, the HyNic modified peptide was dissolved in dimethyl formamide (DMF) organic solvent. The purified DIM was modified to incorporate the 4FB moiety at random lysine residues following protocols provided by SoluLink. After conjugation, the peptide/DIII ratio was determined by measuring A354nm to be an average of 2 CEA specific peptides for every DIIIb molecule and the conjugate was soluble in aqueous solutions. Size exclusion chromatography using Superdex 200 column (GE Healthcare Piscataway, N.J.) was used for purification. Purified anti-CEA peptide-DIIIb conjugates were then radiolabeled with ^124I and injected intravenously in four athymic nude mice bearing LS174T (CEA positive) and C6 (CEA negative) tumors. Mice were imaged by small animal PET/CT at 4, 20 and 27 h, after which mice were euthanized, dissected and tissues/organs were counted in a gamma well counter.

[3] = test system: LS174T (CEA positive) tumor; type: in vivo, athymic nude mice
Method: as §1

## DIII H464A: HSA domain III variant with H464 mutated to alanine
[1]
  AUC (time integral of the blood uptake): 199 % ID/g × h
  Aα (amplitude): 44.95 % ID/g
  Aβ (amplitude): 11.41 % ID/g
  k1: 1.438
  k2: 0.068
  t1/2α: 0.482 h
  t1/2β: 10.2 h

## DIII WT: HSA domain III wild type (amino acid residues 384 to 585)
[1]
  AUC (time integral of the blood uptake): 474.8 % ID/g × h
  Aα (amplitude): 36.2 % ID/g
  Aβ (amplitude): 16.81 % ID/g
  k1: 0.3479
  k2: 0.04534
  t1/2α: 1.99 h

## SDWVCEFIKSQWFCNVLASG [CEA specific, cyclic peptide, reference compound]
[2]
  Solubility in aqueous solution: precipitated

B1: anti-CEA peptide-DIIIb conjugate: CEA specific cyclic peptide (HyNic) conjugated to 4FB-modified DIIIb, average of 2 peptides per DIIIb (conjugate)
chain: HADICTLSEKERQIKKQTALVELVKHKPKATKEQLKAVMDDFAAFVEKCCKADDKETCFAEEGKKLVAASQAALGL
peptide: SDWVCEFIKSQWFCNVLASG
modifications: cyclised or stapled
notes: CEA specific cyclic peptide (HyNic) conjugated to 4FB-modified DIIIb, average of 2 peptides per DIIIb
[3]; 27 h
  (CEA positive) tumor/(CEA negative) tumor ratio: 1.2
  Tumor/muscle ratio: 5.1
  tumor/blood ratio: 0.51
[3]; PET/CT images
  Targeting of CEA positive tumor: target the CEA positive tumor
[3]; mouse, in vivo
  Blood: 3.00 % ID/g
  C6 Tumor: 1.26 % ID/g
  Carcass: 0.56 % ID/g
  Kidneys: 3.66 % ID/g
  LS174T Tumor: 1.53 % ID/g
  Liver: 1.42 % ID/g
  Lungs: 2.36 % ID/g
  Muscle: 0.30 % ID/g
  Spleen: 1.04 % ID/g
  Stomach: 1.07 % ID/g
[2]
  Solubility in aqueous solution: soluble
